Target: recombinant TGFβ1 (R and D Systems) (UniProt P01137 279-390)
Experiment: method not stated

Sequence of recombinant TGFβ1 (R and D Systems) (P01137 279-390 limits assumed): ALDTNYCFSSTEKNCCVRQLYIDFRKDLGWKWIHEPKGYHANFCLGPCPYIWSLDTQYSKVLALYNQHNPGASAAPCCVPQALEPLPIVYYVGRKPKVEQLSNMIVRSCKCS

B1: 31G9 scFv (scFv)
chain: QVQLVQSGGGVVQPGRSLRLSCAASGFTFSSYGMHWVRQAPGKGLEWVAVISYDGSIKYYADSVKGRFTISRDNSKNTLYLQMNSLRAEDTAVYYCARTGEYSGYDTSGVELWGQGTTVTVSSGGGGSGGGGSGGGGSDIVMTQSPSTLSASVGDRVTITCRASQGISSWLAWYQQKPGRAPKVLIYKASTLESGVPSRFSGSGSGTDFTLTISSLQPEDFATYYCQQSYSTPWTFGQGTKLEIKR
Kd: 1.2 nM
